Here are results for 6 molecules from publication doi:10.1101/2024.06.25.600625 (bioRxiv, 2024).

T1: N-terminally FlAsH-labeled CDC37 (UniProt Q16543 1-378, FlAsH-EDT2 label on the N-terminal tetra-cysteine tag)
T1 sequence: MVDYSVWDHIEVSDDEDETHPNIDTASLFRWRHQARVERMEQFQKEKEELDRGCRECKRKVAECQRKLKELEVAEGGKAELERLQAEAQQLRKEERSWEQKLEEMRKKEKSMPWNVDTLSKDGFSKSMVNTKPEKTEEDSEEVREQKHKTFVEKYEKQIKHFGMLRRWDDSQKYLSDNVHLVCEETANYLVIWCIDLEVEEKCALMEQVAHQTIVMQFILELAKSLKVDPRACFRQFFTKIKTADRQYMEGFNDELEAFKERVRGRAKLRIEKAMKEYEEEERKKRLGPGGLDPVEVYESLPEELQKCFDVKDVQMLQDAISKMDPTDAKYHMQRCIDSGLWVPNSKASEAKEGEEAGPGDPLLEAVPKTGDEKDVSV

B1: C-terminally FlAsH-labeled p23 (natural protein)
chain: MQPASAKWYDRRDYVFIEFCVEDSKDVNVNFEKSKLTFSCLGGSDNFKHLNEIDLFHCIDPNDSKHKRTDRSILCCLRKGESGQSWPRLTKERAKLNWLSVDFNNWKDWEDDSDEDMSNFDRFSEMMNNMGGDEDVDLPEVDGADDDSQDSDDEKMPDLE
modifications: FlAsH-EDT2 label on the C-terminal tetra-cysteine tag
B2: unlabeled p23 (natural protein)
chain: B1 chain
B3: human Hsp90α Y38F,Y61F,Y197E (natural protein)
chain: not shown
B4: human Hsp90α Y38F,Y61E,Y197E (natural protein)
chain: not shown
B5: human Hsp90α Y38E (natural protein)
chain: not shown
B6: human Hsp90α Y38E,Y61F,Y197E (natural protein)
chain: not shown

Common to all, as to experiment: fluorescence polarisation
Test [1] addresses wild-type human Hsp90α (human, UniProt P07900 1-732).
Test [2] addresses B4.
The target in test [3] is B6.
In test [4] the target is human Hsp90α Y38F (human, UniProt P07900 1-732, Y38F).
Test [5] concerns the target human Hsp90α Y61E (human, UniProt P07900 1-732, Y61E).
Test [6] has as its target human Hsp90α Y61F (human, UniProt P07900 1-732, Y61F).
Test [7] concerns the target human Hsp90α Y197E (human, UniProt P07900 1-732, Y197E).
The target of test [8] is human Hsp90α Y197F (human, UniProt P07900 1-732, Y197F).
Test [9] addresses B3.
In test [10] the target is human Hsp90α Y38F,Y61F,Y197F (human, UniProt P07900 1-732, Y38F | Y61F | Y197F).
Test [11] addresses T1, N-terminally FlAsH-labeled CDC37.
The target of test [12] is B1.

B1: the binding result in test [1], in [2], in test [3], in test [4], in test [5] and in test [6] was “binds” throughout. Besides, the binding result in test [7], in [8], in test [9] and in test [10] was “binds” throughout.

Regarding B2, the binding result in test [1] is given as “binds”.

Consider B3, for which, in [11], the “fold increase of KD against all other Hsp90 variants” value was determined as 2 fold.

As to B4, the “fold increase of KD against all other Hsp90 variants” value in test [11] amounted to 2 fold.

Consider B5, for which the “fold increase of KD (reference not named, wild type implied)” value in test [12] was 3.5 fold.

With B6, in test [11], the “fold increase of KD against all other Hsp90 variants” value was 2 fold.
